{
  "source": "patent US8536148B2",
  "about": "“Disabling autophagy as a treatment for lysosomal storage diseases” (The United States of America, as Represented by the …, priority 2009, dated 2013)",
  "origin": "cited, not measured here",
  "molecules": {"B1": {"name": "idursulfase: recombinant human I2S produced in a human cell line, approved for Hunter syndrome (protein, UniProt P22304 34-455; P22304 456-550, looked up)", "Iduronate 2-sulfatase 42 kDa …": "TDALNVLLIIVDDLRPSLGCYGDKLVRSPNIDQLASHSLLFQNAFAQQAVCAPSRVSFLTGRRPDTTRLYDFNSYWRVHAGNFSTIPQYFKENGYVTMSVGKVFHPGISSNHTDDSPYSWSFPPYHPSSEKYENTKTCRGPDGELHANLLCPVDVLDVPEGTLPDKQSTEQAIQLLEKMKTSASPFFLAVGYHKPHIPFRYPKEFQKLYPLENITLAPDPEVPDGLPPVAYNPWMDIRQREDVQALNISVPYGPIPVDFQRKIRQSYFASVSYLDTQVGRLLSALDDLQLANSTIIAFTSDHGWALGEHGEWAKYSNFDVATHVPLIFYVPGRTASLPEAGEKLFPYLDPFDSASQLMEPGRQSMDLVELVSLFPTLAGLAGLQVPPRCPVPSFHVELCREGKNLLKHFRFRDLEEDPYLPG", "Iduronate 2-sulfatase 14 kDa …": "NPRELIAYSQYPRPSDIPQWNSDKPSLKDIKIMGYSIRTIDYRYTVWVGFNPDEFLANFSDIHAGELYFVDSDPLQDHNMYNDSQGGDLFQLLMP"}},
  "tested_on": "Hunter syndrome patients",
  "key": {"[1]": {"conditions": "from baseline, both dosing regimens"}},
  "data": [
    {"molecule": "B1", "values": [
      {"measurement": "Liver and spleen volumes", "setting": "[1]", "value": "significantly reduced from baseline"},
      {"measurement": "Urine GAG excretion", "setting": "[1]", "value": "significantly reduced from baseline"},
      {"measurement": "Tolerability", "setting": "human, in vivo", "value": "generally well tolerated"},
      {"measurement": "Clinical improvement vs placebo", "setting": "patients with Hunter syndrome", "value": "statistically significant improvement rate compared with placebo"}
    ]}
  ]
}
